Assay [1] addresses T1, full length recombinant human 2N4R tau (amino acids 1-441) (human, UniProt P10636 1-758).
T1 construct: Bought (rPeptide); recombinant, non-phosphorylated; also called recombinant tau
Briefly: SPR Biacore SCK, IgG on Protein A, tau analyte. On the procedure:
23.5 Assessment of antibody binding to tau (Biacore SCK analysis): Binding of anti-tau hIgG1 to full length recombinant 2N4R tau (Rpeptide; SEQ ID NO: 2) was assessed using the Biacore T200 (GE Healthcare, Chicago, Ill., USA) running Biacore T200 Evaluation Software V2.0.1. hIgG1 were immobilised on a Protein A capture sensor chip in running buffer (HBS-EP+ buffer containing 1 mg/mL BSA) at 25° C. captured to ˜50 RU at 10 μL/min. For single-cycle kinetics experiments, recombinant 2N4R tau was flowed at concentrations ranging from 5 nM to 40 nM (2-fold dilutions) with an association time of 150 s and a dissociation time of 200 s. Curves were compared to a reference cell that was mock immobilized (no antibody present).
Data were analysed using Langmuir (1:1) binding analysis, describing a 1:1 interaction at the surface: […]
Background: Surface plasmon resonance follows binding to a sensor surface in real time, without labels.

The target in assay [2] is T1, full length recombinant human 2N4R tau …. In words: SPR Biacore MCK, purified IgG on Protein A, tau analyte. On the procedure:
Biacore multi-cycle kinetics (MCK) analyses for antibody binding to recombinant (non-phosphorylated) 2N4R tau are summarised in FIG. 23 and Table 8. […] Slight variations in RMAX are considered likely to be due to differences in ligand capture and not reflective of significant variation in antibody binding characteristics.
24.2 Assessment of antibody binding to tau (Biacore MCK analysis): Binding of anti-tau hIgG1 to full length recombinant 2N4R tau (Rpeptide; SEQ ID NO: 2) was assessed using the Biacore T200 (GE Healthcare, Chicago, Ill., USA) running Biacore T200 Evaluation Software V2.0.1. hIgG1 were immobilised on a Protein A capture sensor chip in running buffer (HBS-EP+ buffer containing 1 mg/mL BSA) at 25° C. captured to ˜50 RU at 10 μL/min. […] Curves were compared to a reference cell that was mock immobilized (no antibody present).

In assay [3] the target is T2, Bovine serum albumin (bovine, UniProt P02769 25-607).
T2 construct: Negative control antigen in ELISA; also called BSA
T2 sequence (P02769 25-607 limits assumed): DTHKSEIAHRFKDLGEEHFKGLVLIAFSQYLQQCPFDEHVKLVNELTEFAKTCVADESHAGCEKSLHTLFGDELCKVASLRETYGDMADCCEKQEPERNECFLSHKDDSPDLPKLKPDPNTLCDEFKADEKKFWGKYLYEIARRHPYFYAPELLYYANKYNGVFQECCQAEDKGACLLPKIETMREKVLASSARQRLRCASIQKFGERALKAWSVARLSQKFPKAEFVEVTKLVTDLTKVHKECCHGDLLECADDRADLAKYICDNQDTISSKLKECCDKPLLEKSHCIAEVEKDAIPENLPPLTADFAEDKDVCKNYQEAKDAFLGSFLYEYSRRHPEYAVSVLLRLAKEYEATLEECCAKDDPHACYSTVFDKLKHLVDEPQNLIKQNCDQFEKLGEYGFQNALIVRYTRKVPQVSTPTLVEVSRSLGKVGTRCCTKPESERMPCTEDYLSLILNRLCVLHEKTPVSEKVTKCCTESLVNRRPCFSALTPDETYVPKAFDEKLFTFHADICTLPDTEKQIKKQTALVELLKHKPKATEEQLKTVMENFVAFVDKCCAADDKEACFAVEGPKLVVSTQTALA
Briefly: ELISA on 1% BSA, HEK supernatant, anti-human IgG-HRP, n=1. As to the method:
Antigen was removed from wells and the plates were then blocked for 1 hour at RT with 5% dried milk in 1×TBS. Blocking solution was removed, HEK293 cell supernatant (1:100 in 1% BSA/1×TBS) was added to relevant wells, and plates were incubated for 1 hour at RT with gentle shaking. Plates were then washed four times with TBS/0.1% Tween (TBST). Goat-anti-human IgG-HRP antibody (ThermoFisher Scientific, Waltham, Mass. USA), diluted 1:2000 in 5% milk/TBS, was added to each well and plates were incubated for 1 hour at RT with gentle shaking before being washed four times with TBST. 3,3′,5,5′-tetramethylbenzidine (TMB) ELISA solution was added to each well and plates were incubated for 15 mins at RT. An equal volume of 1 M sulfuric acid was added to each well and OD was measured at 450 nm.

The target in assay [4] is full length pHrodo-labelled monomeric (P301S) 2N4R tau (human, UniProt P10636 1-758, labelled with pHrodo Red Maleimide). Briefly: cell-based or functional assay.
full length pHrodo-labelled monomeric (P301S) 2N4R tau, sequence (P10636 other isoform, or with tags, fused parts or gaps P301S P301S): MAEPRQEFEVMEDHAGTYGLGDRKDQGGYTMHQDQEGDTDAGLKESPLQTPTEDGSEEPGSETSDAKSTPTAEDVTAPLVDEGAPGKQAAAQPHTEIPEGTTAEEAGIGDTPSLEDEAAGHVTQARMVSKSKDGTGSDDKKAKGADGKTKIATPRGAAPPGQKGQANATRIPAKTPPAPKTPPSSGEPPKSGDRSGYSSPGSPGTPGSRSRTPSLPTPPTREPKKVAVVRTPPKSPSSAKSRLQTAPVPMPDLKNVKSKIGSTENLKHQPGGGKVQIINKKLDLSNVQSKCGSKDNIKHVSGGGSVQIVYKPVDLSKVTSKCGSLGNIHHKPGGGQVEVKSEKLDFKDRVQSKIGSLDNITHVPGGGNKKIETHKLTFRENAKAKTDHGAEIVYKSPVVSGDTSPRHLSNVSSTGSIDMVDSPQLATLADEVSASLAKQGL
The target of assay [5] is full length pHrodo-labelled aggregated (P301S) 2N4R tau (human, UniProt P10636 1-758, labelled with pHrodo Red Maleimide). Briefly: cell-based or functional assay.
full length pHrodo-labelled aggregated (P301S) 2N4R tau, sequence (P10636 other isoform, or with tags, fused parts or gaps P301S P301S): as above

T1 sequence (P10636 other isoform, or with tags, fused parts or gaps limits assumed): as the sequence (P10636 other isoform, or with tags, fused parts or gaps P301S P301S) above, with S301P counted along it

B1: Clone #28 VH0VK0 chimeric human IgG1 (rabbit VH and VK of Clone 1) (antibody, V domains shown)
VH: QSLEESGGGLVKPGGTLTLTCTVSGFSLNNYDMSWVRQAPGKGLEWIGTVSTTYRRYYASWAKGRFTISKTSSTTVDLKMTSLTTEDTATYFCAASGIWGPGTLVTVSL
VL: AQVLTQTTSPVSAAVGGTVTINCQSSQRVYSNYLAWYQQKPGQPPKRLIFLASTLESGVPSRFSGSGSGTQFTLTISDLECDDAATYYCAGTYTGSIWAFGGGTEVVVK
notes: also called VH0Vκ0; #28 VH0κ0
Take B1: in assay [1], the Kd was 45.3 nM, the “Relative KD” value came out at 1 fold vs VH0VK0, the koff was 0.00342 s⁻¹ and the kon turned out to be 75400 M⁻¹ s⁻¹. For the same molecule, in assay [2], the Kd was 24.9 nM, the “Relative KD” value was 1 fold vs VH0VK0, the koff amounted to 0.00249 s⁻¹ and the kon turned out to be 99900 M⁻¹ s⁻¹. The binding result in assay [3] is “no binding (tested: supernatant 1:100)”.

B2: Clone 31 (VH5Vκ2), humanised variant of clone #28, human IgG1 (antibody, V domains shown)
VH: QVQLQESGPGLVKPSETLSLTCTVSGFSLNNYDMSWVRQAPGKGLEWIGTVSTTYRRYYASWAKGRFTISRDNSKNTLDLQMTSLTAEDTATYFCAASGIWGRGTLVTVSS
VL: AQVLTQSPSTLSASVGDRVTITCQSSQRVYSNYLAWYQQKPGQPPKRLIFLASTLESGVPSRFSGSGSGTEFTLTISSLQPDDFATYYCAGTYTGSIWAFGGGTKVEIK
notes: also called VH5VK2; VH5Vk2
In the case of B2, in assay [4], the “inhibition of uptake of monomeric tau into human iPSC-derived astrocytes” value amounted to 26.7 % inhibition and the “inhibition of uptake of monomeric tau into human iPSC-derived neurons” value turned out to be 57.3 % inhibition. In assay [5], the “increase of uptake of aggregated tau into human iPSC-derived microglia” value (shortened to “increase”) came out at 133 % increase, the “inhibition of uptake of aggregated tau into human iPSC-derived astrocytes” value worked out at 27.8 % inhibition and the “inhibition of uptake of aggregated tau into human iPSC-derived neurons” value came out at 57.2 % inhibition. In assay [1], the Kd stood at 96.5 nM, the “Relative KD” value turned out to be 2.13 fold vs VH0VK0, the off-rate (koff) came to 0.00362 s⁻¹ and the kon came to 37500 M⁻¹ s⁻¹. For the same molecule, in assay [2], the Kd is 34.8 nM, the “Relative KD” value is 1.4 fold vs VH0VK0, the koff turned out to be 0.00321 s⁻¹ and the kon stood at 92400 M⁻¹ s⁻¹. In addition, in assay [3], the binding result is given as “no binding (tested: supernatant 1:100)”.

B3: Clone 27 (VH4Vκ2), humanised variant of clone #28, human IgG1 (antibody, V domains shown)
VH: QVQLQESGPGLVKPSETLSLTCTVSGFSLNNYDMSWVRQAPGKGLEWIGTVSTTYRRYYASWAKGRFTISKDTSSTTVDLQMTSLTAEDTATYFCAASGIWGRGTLVTVSS
VL: AQVLTQSPSTLSASVGDRVTITCQSSQRVYSNYLAWYQQKPGQPPKRLIFLASTLESGVPSRFSGSGSGTEFTLTISSLQPDDFATYYCAGTYTGSIWAFGGGTKVEIK
notes: also called VH4VK2; VH4Vk2
Take B3: the “inhibition of uptake of monomeric tau into human iPSC-derived neurons” value in assay [4] was found to be 66.5 % inhibition. In addition, in assay [5], the “increase” value was determined as 179 % increase and the “inhibition of uptake of aggregated tau into human iPSC-derived neurons” value was 58.7 % inhibition. Moreover, in assay [1], the Kd was found to be 68.6 nM, the “Relative KD” value stood at 1.51 fold vs VH0VK0, the koff worked out at 0.00308 s⁻¹ and the kon is 44800 M⁻¹ s⁻¹. In addition, in assay [2], the Kd was determined as 44 nM, the “Relative KD” value came out at 1.77 fold vs VH0VK0, the koff is 0.0026 s⁻¹ and the kon amounted to 59100 M⁻¹ s⁻¹. The binding result in assay [3] is on record as “no binding (tested: supernatant 1:100)”.

B4: Clone 24 (VH3Vκ4), humanised variant of clone #28, human IgG1 (antibody, V domains shown)
VH: QVQLQESGPGLVKPSETLSLTCTVSGFSLNNYDMSWVRQAPGKGLEWIGTVSTTYRRYYASWAKGRFTISKTSSTTVDLQMTSLTAEDTATYFCAASGIWGRGTLVTVSS
VL: DIQMTQSPSTLSASVGDRVTITCQSSQRVYSNYLAWYQQKPGQPPKRLIFLASTLESGVPSRFSGSGSGTEFTLTISSLQPDDFATYYCAGTYTGSIWAFGGGTKVEIK
notes: also called VH3VK4; VH3Vk4
As to B4, in assay [4], the “inhibition of uptake of monomeric tau into human iPSC-derived astrocytes” value came out at 31.5 % inhibition and the “inhibition of uptake of monomeric tau into human iPSC-derived neurons” value was found to be 63.3 % inhibition. Further, in assay [5], the “increase” value was found to be 267 % increase, the “inhibition of uptake of aggregated tau into human iPSC-derived astrocytes” value came to 30.8 % inhibition and the “inhibition of uptake of aggregated tau into human iPSC-derived neurons” value amounted to 61.4 % inhibition. Moreover, in assay [1], the Kd was found to be 21.2 nM, the “Relative KD” value is 0.47 fold vs VH0VK0, the koff turned out to be 0.00146 s⁻¹ and the kon is 68900 M⁻¹ s⁻¹. Moreover, in assay [2], the Kd was found to be 17.1 nM, the “Relative KD” value was 0.69 fold vs VH0VK0, the koff was 0.0013 s⁻¹ and the kon came to 76100 M⁻¹ s⁻¹. In addition, the binding result in assay [3] is reported as “no binding (tested: supernatant 1:100)”.

B5: Clone 28 (VH4Vκ4), humanised variant of clone #28, human IgG1 (antibody, V domains shown)
VH: QVQLQESGPGLVKPSETLSLTCTVSGFSLNNYDMSWVRQAPGKGLEWIGTVSTTYRRYYASWAKGRFTISKDTSSTTVDLQMTSLTAEDTATYFCAASGIWGRGTLVTVSS
VL: DIQMTQSPSTLSASVGDRVTITCQSSQRVYSNYLAWYQQKPGQPPKRLIFLASTLESGVPSRFSGSGSGTEFTLTISSLQPDDFATYYCAGTYTGSIWAFGGGTKVEIK
notes: also called VH4VK4; VH4Vk4
As to B5, in assay [4], the “inhibition of uptake of monomeric tau into human iPSC-derived astrocytes” value is 42 % inhibition and the “inhibition of uptake of monomeric tau into human iPSC-derived neurons” value was determined as 61.5 % inhibition. Besides, in assay [5], the “increase” value was found to be 246 % increase, the “inhibition of uptake of aggregated tau into human iPSC-derived astrocytes” value stood at 29.1 % inhibition and the “inhibition of uptake of aggregated tau into human iPSC-derived neurons” value was found to be 58.7 % inhibition. In addition, in assay [1], the Kd worked out at 49 nM, the “Relative KD” value was found to be 1.08 fold vs VH0VK0, the dissociation rate constant (koff) came out at 0.00234 s⁻¹ and the kon came out at 47700 M⁻¹ s⁻¹. In assay [2], the Kd amounted to 26.9 nM, the “Relative KD” value was 1.08 fold vs VH0VK0, the koff was found to be 0.00186 s⁻¹ and the kon is 69200 M⁻¹ s⁻¹. The binding result in assay [3] is recorded as “no binding (tested: supernatant 1:100)”.

B6: Clone 32 (VH5Vκ4), humanised variant of clone #28, human IgG1 (antibody, V domains shown)
VH: QVQLQESGPGLVKPSETLSLTCTVSGFSLNNYDMSWVRQAPGKGLEWIGTVSTTYRRYYASWAKGRFTISRDNSKNTLDLQMTSLTAEDTATYFCAASGIWGRGTLVTVSS
VL: DIQMTQSPSTLSASVGDRVTITCQSSQRVYSNYLAWYQQKPGQPPKRLIFLASTLESGVPSRFSGSGSGTEFTLTISSLQPDDFATYYCAGTYTGSIWAFGGGTKVEIK
notes: also called VH5VK4; VH5Vk4
B6: in assay [4], the “inhibition of uptake of monomeric tau into human iPSC-derived astrocytes” value turned out to be 45.7 % inhibition and the “inhibition of uptake of monomeric tau into human iPSC-derived neurons” value worked out at 64.2 % inhibition. Further, in assay [5], the “increase” value came to 243 % increase, the “inhibition of uptake of aggregated tau into human iPSC-derived astrocytes” value was 45.7 % inhibition and the “inhibition of uptake of aggregated tau into human iPSC-derived neurons” value is 41.3 % inhibition. Besides, in assay [1], the Kd turned out to be 67.3 nM, the “Relative KD” value came to 1.49 fold vs VH0VK0, the koff is 0.00239 s⁻¹ and the kon was determined as 35500 M⁻¹ s⁻¹. Moreover, in assay [2], the Kd was determined as 33.6 nM, the “Relative KD” value is 1.35 fold vs VH0VK0, the koff was determined as 0.00239 s⁻¹ and the association rate constant (kon) was 71100 M⁻¹ s⁻¹. In assay [3], the binding result is “no binding (tested: supernatant 1:100)”.

B7: Clone 21 (VH2Vκ5), humanised variant of clone #28, human IgG1 (antibody, V domains shown)
VH: QSLQESGPGLVKPSETLSLTCTVSGFSLNNYDMSWVRQAPGKGLEWIGTVSTTYRRYYASWAKGRFTISKTSSTTVDLQMTSLTAEDTATYFCAASGIWGRGTLVTVSS
VL: DIQMTQSPSTLSASVGDRVTITCQSSQRVSSSYLAWYQQKPGQPPKRLIFLASTLESGVPSRFSGSGSGTEFTLTISSLQPDDFATYYCAGTYTGSIWAFGGGTKVEIK
notes: also called VH2VK5
Take B7: in assay [1], the Kd came out at 136 nM, the “Relative KD” value stood at 3 fold vs VH0VK0, the koff was found to be 0.00523 s⁻¹ and the kon amounted to 38500 M⁻¹ s⁻¹. Further, in assay [3], the binding result was “no binding (tested: supernatant 1:100)”.

As a reminder, the Kd is the free concentration of one partner at which half of the binding sites on the other are occupied at equilibrium, for simple one-to-one binding. In general, koff refers to the rate constant with which the complex falls apart. For orientation: kon means the rate constant with which the complex forms.

The record behind these values is patent US20220265819A1 (GEN2 NEUROSCIENCE, published 2022).
